Consider 2 molecules from paper PMC3060076 (PLoS Genetics, 2011).

The target of this assay is T1, Myc-Smo (6Myc-tagged Smoothened) (Drosophila, UniProt P91682 32-1036).
T1 sequence (looked up): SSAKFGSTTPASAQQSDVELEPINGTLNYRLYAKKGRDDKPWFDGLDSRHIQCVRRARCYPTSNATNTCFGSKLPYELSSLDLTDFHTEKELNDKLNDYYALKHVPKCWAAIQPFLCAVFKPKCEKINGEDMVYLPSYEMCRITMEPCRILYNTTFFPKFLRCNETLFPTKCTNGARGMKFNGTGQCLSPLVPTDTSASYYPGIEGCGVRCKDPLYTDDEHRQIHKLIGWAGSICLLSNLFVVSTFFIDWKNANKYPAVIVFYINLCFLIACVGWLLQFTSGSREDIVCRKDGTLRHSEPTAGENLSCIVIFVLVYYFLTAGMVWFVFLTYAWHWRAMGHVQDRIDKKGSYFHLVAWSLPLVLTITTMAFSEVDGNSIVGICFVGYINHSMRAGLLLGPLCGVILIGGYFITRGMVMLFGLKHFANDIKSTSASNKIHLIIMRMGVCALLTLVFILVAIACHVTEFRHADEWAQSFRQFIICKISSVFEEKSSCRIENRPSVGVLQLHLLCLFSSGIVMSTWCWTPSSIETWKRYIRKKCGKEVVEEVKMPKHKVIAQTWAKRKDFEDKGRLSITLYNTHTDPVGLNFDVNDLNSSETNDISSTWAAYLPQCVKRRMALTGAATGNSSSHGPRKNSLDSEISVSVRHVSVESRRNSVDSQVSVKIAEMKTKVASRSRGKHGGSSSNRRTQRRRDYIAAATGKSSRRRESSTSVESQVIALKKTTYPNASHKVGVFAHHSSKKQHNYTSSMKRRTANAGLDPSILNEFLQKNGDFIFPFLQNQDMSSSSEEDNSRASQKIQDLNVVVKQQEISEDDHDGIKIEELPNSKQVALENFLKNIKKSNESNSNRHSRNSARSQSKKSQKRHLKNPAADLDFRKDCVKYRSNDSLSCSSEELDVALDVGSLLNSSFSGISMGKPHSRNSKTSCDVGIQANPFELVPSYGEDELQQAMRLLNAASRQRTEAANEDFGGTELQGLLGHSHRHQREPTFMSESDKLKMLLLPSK
In words: co-IP; lysates of stable Myc-Smo S2 cells transiently transfected with pAWF-krz constructs, grown in Hh conditioned medium for 18-24 hrs; immunoprecipitated with anti-Myc agarose at 4°C for 4-16 h with 1 mg/ml BSA (IP buffer: 40 mM Tris-HCl, 200 mM NaCl, 1% Chapso, 0,5% NP40); blotted with anti-Krz serum and anti-Myc. To be noted: partners not purified.

Numbering of substitutions follows the chain as printed. Names and notes keep the numbering of the source.

B1: Krz^Leu-Flag (pAWF-Krz^Leu; Leu440-Ile441-Leu443 to Ala) (natural protein, Drosophila, UniProt Q9V393 1-470, looked up)
chain: MNGGGGGSGGANVSNGSSTNVTAAGSTGGGSAGDETGGDASSRRQATRVFKKSSSNGKITVYLGKRDFVDHVTHVDPIDGVVFIDPEYVKDRKVFGQVLAAFRYGREDLDVLGLTFRKDLYLAHEQIYPPMQLDRPMTRLQERLIKKLGPNAHPFYFEVPPYCPASVSLQPAPGDVGKSCGVDYELKAFVGENVEDKPHKRNSVRLTIRKVMYAPSKVGEQPSIEVSKEFMMKPNKIHLEATLDKELYHHGEKISVNVHVANNSNRTVKKIKVCVRQFADICLFSTAQYKSVVAEIESEDGCQVAPGFTLSKVFELCPLLANNKDKWGLALDGQLKHEDTNLASSTLITNPAQRESLGIMVHYKVKVKLLISSPLLNGDLVAELPFTLMHPKPEEEEHPLLGERSPRASLAGGGLPLVSMSDGETESATGGQDVPTTTNAAQADDDEAQDDDIIFEDFARLRLKGAETEA
As for B1, the “fold of co-immunoprecipitate over wild type Krz” value came to 4 times over wild type Krz.

B2: Krz^V94D-Flag (pAWF-Krz^V94D) (natural protein, Drosophila, UniProt Q9V393 1-470, looked up)
chain: B1 chain with V94D, A440L, A441I, A443L
As for B2, the “fold of co-immunoprecipitate over wild type Krz” value came to 3 times over wild type Krz.
